This assay concerns the target T1, fragment of the LEM peptide having the amino acid sequence of LEMPSSLMLEVP (SEQ ID NO: 2).
T1 peptide: LEMPSSLMLEVP
Nature of the assay: MSD binding assay (format for the fragment not detailed). On the procedure:
LEM peptide specific rabbit polyclonal and monoclonal antibodies were produced using standard laboratory technologies. Binding affinity of the antibodies was assessed using MSD experiment performed according to the manufacturer's protocols. MSD plates were coated with 1 mg/ml of peptide in PBS and blocked with casein in PBS. Anti-rabbit sulfo-tagged antibody was used as the detection agent. Antibody binding specificity was assessed using control reactions that included the target peptide to inhibit binding. […] None of the antibodies tested can bind to a fragment of the LEM peptide having the amino acid sequence of […] (SEQ ID NO: 2).

B1: 130D2-1 (antibody, V domains shown)
VH: QSLAESGGRLVTPGTPLTLTCTVSGVDLSYYPMTWVRQAPGKGLEYIGIILHNGTSCYARWARGRFTISKTSTTVELRITSPTTEDTATYFCARASVASIVGSSDIWGPGTLVTVSS
VL: LVLTQTPSSVSAAVGGTVTINCQSSQSVYKNSALSWYQQKPGQPPKLLIYGASTLASGVPSRFSGNGSGTQFTLTISGVQCADAATYYCTGAINDEIHAFGGGTEVVVR
notes: Rabbit monoclonal IgG; also called 130D2-1 monoclonal anti-LEM antibody; anti-LEM mAb
B1: the binding result is given as “no binding”.
